The target in one assay is T1, γc-JAK-3 interaction (Homo sapiens, UniProt P52333).
T1 construct: endogenous in cells; host or cells: YT cells (alternatively COS-7 cells expressing γc and JAK-3)
T1 sequence (P52333 1-1124): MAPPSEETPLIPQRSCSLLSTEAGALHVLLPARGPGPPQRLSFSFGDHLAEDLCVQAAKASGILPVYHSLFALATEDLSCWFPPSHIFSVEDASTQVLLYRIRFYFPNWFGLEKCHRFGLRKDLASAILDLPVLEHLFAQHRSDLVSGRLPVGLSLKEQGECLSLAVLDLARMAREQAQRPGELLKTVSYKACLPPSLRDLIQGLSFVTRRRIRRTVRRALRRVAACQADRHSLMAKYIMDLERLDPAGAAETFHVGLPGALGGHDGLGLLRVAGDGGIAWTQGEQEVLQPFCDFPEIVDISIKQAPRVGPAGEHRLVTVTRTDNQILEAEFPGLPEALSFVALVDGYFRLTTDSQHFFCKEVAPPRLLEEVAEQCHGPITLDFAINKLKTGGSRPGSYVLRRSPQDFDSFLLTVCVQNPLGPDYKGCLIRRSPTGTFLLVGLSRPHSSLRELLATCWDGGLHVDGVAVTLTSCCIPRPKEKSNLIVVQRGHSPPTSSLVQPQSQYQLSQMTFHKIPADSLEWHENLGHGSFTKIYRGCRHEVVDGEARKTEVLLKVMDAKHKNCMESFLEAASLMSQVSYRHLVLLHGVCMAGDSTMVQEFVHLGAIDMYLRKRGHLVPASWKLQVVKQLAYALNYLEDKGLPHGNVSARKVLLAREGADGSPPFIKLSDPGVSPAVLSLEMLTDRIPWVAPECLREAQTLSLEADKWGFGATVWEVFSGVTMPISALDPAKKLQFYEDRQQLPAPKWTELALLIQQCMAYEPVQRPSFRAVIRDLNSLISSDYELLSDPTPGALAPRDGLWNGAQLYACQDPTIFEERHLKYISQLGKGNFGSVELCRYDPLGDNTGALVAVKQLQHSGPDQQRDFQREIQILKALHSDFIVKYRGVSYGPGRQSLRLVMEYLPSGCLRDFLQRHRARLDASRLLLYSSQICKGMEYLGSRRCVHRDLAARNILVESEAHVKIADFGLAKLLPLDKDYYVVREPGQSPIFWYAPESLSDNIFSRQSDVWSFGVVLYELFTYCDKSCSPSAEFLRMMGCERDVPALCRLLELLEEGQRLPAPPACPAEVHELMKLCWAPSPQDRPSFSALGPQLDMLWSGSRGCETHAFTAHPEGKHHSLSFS
The experiment in a line: Assay for compounds that inhibit IL-2 receptor complex formation: γc-JAK-3 coprecipitation (Example 15). Type of assay: binding. The following applies: peptide 140 μM added to cell lysates, anti-γc immunoprecipitation, JAK-3 immunoblot. The procedure: The peptide to be tested as an inhibitor corresponded to the first 19 amino acids of the γc cytoplasmic tail (sequence […]) (SEQ ID NO:7). […] The negative control peptide had the sequence […] (SEQ ID NO:10), and was synthesized so that the Tyr residue at position 5 of the peptide was phosphotyrosine. The test peptide or the negative control peptide were separately added to the cell lysates to final concentrations of 140 μM. The positive control immunoprecipitation was carried out in the absence of added peptide. Lysates were immunoprecipitated for 16 hours at 4° C. using antibodies to γc and protein A sepharose and washed six times before electrophoresis on SDS gels. The gels were immunoblotted with antisera to JAK-3 using ECL as described previously.

Another assay deals with JAK-1. The experiment in a line: Cytokine-induced phosphorylation and activation of JAK-1 in PHA-activated peripheral blood lymphocytes (Example 11). Format: cell-based, human. The following applies: for tyrosine phosphorylation of JAK-1: PBL, 15 minutes, Western blotting; for activation of JAK-1: in vitro kinase assays. The procedure: (§1) The PBL were activated for 72 hours with PHA, then washed twice at pH 6.5, incubated for 3 hours in medium containing 0.5% human serum and resuspended in medium containing 10% fetal calf serum for one hour. Cells were then lysed and immunoprecipitated with polyclonal antibodies to JAK-1 (UBI) or JAK-3. The anti-JAK-3 antibody used in these procedures has been described by Johnston et al., in Nature 370:151 (1994). Phosphotyrosine-containing proteins were detected by immunoblotting with 4G10 (UBI). […] In one procedure, the lysate was precleared with polyclonal antibody to JAK-3.

Assay [1] relates to JAK-3. Kind of assay: Cytokine-induced phosphorylation and activation of JAK-3 in PHA-activated peripheral blood lymphocytes (Example 11). Type of assay: cell-based, human. As to conditions: for tyrosine phosphorylation of JAK-3: PBL, 15 minutes, Western blotting; for activation of JAK-3: in vitro kinase assays. The procedure:
as §1

Assay [2] relates to JAK-3. Kind of assay: Cytokine-induced tyrosine phosphorylation of JAK-3 in YT cells (Example 10). Format: cell-based, human. As to conditions: 15 minutes stimulation, anti-JAK-3 IP, antiphosphotyrosine blot. The procedure: (§2) YT cells were serum-starved for 3 hours and acid washed twice before stimulation and immunoprecipitation. NK 3.3 cells were grown for 2 days in 10% lymphocult (Biotest) and 15% fetal bovine serum before being washed and incubated in 2% serum. Commercial polyclonal anti-JAK-1 and JAK-2 antisera were obtained from UBI and Tyk2 polyclonal antiserum from Santa Cruz Biotechnology.

Assay [3] has as its system JAK-3. Kind of assay: Cytokine-induced tyrosine phosphorylation of JAK-3 in NK 3.3 cells (Example 10). Type of assay: cell-based, human. As to conditions: 5 or 15 minutes stimulation. The procedure:
as §2
Cellular lysates were immunoprecipitated with anti-JAK-3 and blotted with antiphosphotyrosine.

For “APPCYTLKPET (n-terminal fragment) [negative control peptide, reference compound]”, the “inhibition of γc-JAK-3 coprecipitation” value with γc-JAK-3 interaction was “failed to inhibit”.
Consider IL-9: cytokine, known γc user, for which, in the assay with JAK-1, the “tyrosine phosphorylation of JAK-1” value is listed as “induced tyrosine phosphorylation” and the “activation of JAK-1” value is given as “activated”. Also, in the assay on JAK-3 [1], the “tyrosine phosphorylation of JAK-3” value is “induced tyrosine phosphorylation” and the “activation of JAK-3” value is recorded as “activated”.
“GM-CSF: granulocyte macrophage colony stimulating factor”: the JAK-3 tyrosine phosphorylation entry in the assay with JAK-3 [2] is reported as “not phosphorylated”.
With “ERTMPRIPTLKNLEDLVTE (n-terminal fragment) [competitor peptide]”, the results for the “inhibition of γc-JAK-3 coprecipitation” value with γc-JAK-3 interaction, in the assay with γc-JAK-3 interaction (listed as 19 amino acid long peptide spanning Leu 271) and with γc-JAK-3 interaction (listed as 19 amino acid polypeptide having the sequence of SEQ ID NO:6) were “partially inhibited”, “only partially inhibited” and “inhibited”, respectively.

B1: IL-4: cytokine that utilizes the common γ chain of the IL-2 receptor (protein, UniProt P05112 25-153, looked up)
Interleukin-4: HKCDITLQEIIKTLNSLTEQKTLCTELTVTDIFAASKNTTEKETFCRAATVLRQFYSHHEKDTRCLGATAQQFHRHKQLIRFLKRLDRNLWGLAGLNSCPVKEANQSTLENFLERLKTIMREKYSKCSS
On to B1, for which the JAK-3 tyrosine phosphorylation result in the assay with JAK-3 [3] is recorded as “tyrosine phosphorylated”. Besides, in the assay on JAK-1, the “tyrosine phosphorylation of JAK-1” value is “induced tyrosine phosphorylation” and the “activation of JAK-1” value was “activated”. Further, in the assay on JAK-3 [1], the “tyrosine phosphorylation of JAK-3” value was “induced tyrosine phosphorylation” and the “activation of JAK-3” value is given as “activated”.

B2: IL-7: cytokine, known γc user (protein, UniProt P13232 26-177, looked up)
Interleukin-7: DCDIEGKDGKQYESVLMVSIDQLLDSMKEIGSNCLNNEFNFFKRHICDANKEGMFLFRAARKLRQFLKMNSTGDFDLHLLKVSEGTTILLNCTGQVKGRKPAALGEAQPTKSLEENKSLKEQKKLNDLCFLKRLLQEIKTCWNKILMGTKEH
On to B2, for which, in the assay with JAK-1, the “tyrosine phosphorylation of JAK-1” value was “induced tyrosine phosphorylation” and the “activation of JAK-1” value was “activated”. Also, in the assay on JAK-3 [1], the “tyrosine phosphorylation of JAK-3” value is reported as “induced tyrosine phosphorylation” and the “activation of JAK-3” value is recorded as “activated”.

The record behind these values is patent publication US7902348B2, “Janus family kinases and identification of immune modulators” (The United States of America as represented by the …, priority 1995, dated 2011).
